In patent publication EP4538285A1 (Chineo Medical Technology Co., Ltd., dated 2025):
Positions count from the first letter of the chain named.

B1: Camrelizumab (antibody, V domains shown)
VH: EVQLVESGGGLVQPGGSLRLSCAASGFTFSSYMMSWVRQAPGKGLEWVATISGGGANTYYPDSVKGRFTISRDNAKNSLYLQMNSLRAEDTAVYYCARQLYYFDYWGQGTTVTVSS
VL: DIQMTQSPSSLSASVGDRVTITCLASQTIGTWLTWYQQKPGKAPKLLIYTATSLADGVPSRFSGSGSGTDFTLTISSLQPEDFATYYCQQVYSIPWTFGGGTKVEIK
B2: Seq No.3-RFc (PD-1 variant SEQ ID NO: 3 fused to rabbit IgG Fc) (Fc fusion)
chain: PGWFLDSPDRPWNPPTFSPALLVVTEGDNATFTCSFSNTSESFVLNWYRMSPSNQTDKLAAFPFLFNLPGQDCRFRVTQLPNGRDFHMSVVRARRNDSGTYLCGAISLSTPVWIKESLRAELRVTERRAEVPTAH
notes: Signal peptide 1-20 left out; also called variant 2; not shown: rabbit IgG Fc (RFc) of vector pcDNA3.4-RFc
B3: Seq No.4-RFc (PD-1 variant SEQ ID NO: 4 fused to rabbit IgG Fc) (Fc fusion)
chain: B2 chain with F64W, L65M, N67C, L68F
notes: Signal peptide 1-20 left out; also called variant 3; not shown: rabbit IgG Fc (RFc) of vector pcDNA3.4-RFc
B4: Seq No.2-RFc (PD-1 variant SEQ ID NO: 2 fused to rabbit IgG Fc) (Fc fusion)
chain: B2 chain with F64E, L65D, F66R, N67S, L68Q
notes: signal peptide 1-20 left out; also called variant 1; not shown: rabbit IgG Fc (RFc) of vector pcDNA3.4-RFc
B5: Seq No.7-RFc (PD-1 variant SEQ ID NO: 7 fused to rabbit IgG Fc) (Fc fusion)
chain: B2 chain with F64E, L65D, F66R, N67I, L68N, P69R, G70S
notes: Signal peptide 1-20 left out; also called variant 6; not shown: rabbit IgG Fc (RFc) of vector pcDNA3.4-RFc
B6: Toripalimab (antibody, V domains shown)
VH: QGQLVQSGAEVKKPGASVKVSCKASGYTFTDYEMHWVRQAPIHGLEWIGVIESETGGTAYNQKFKGRVTITADKSTSTAYMELSSLRSEDTAVYYCAREGITTVATTYYWYFDVWGQGTTVTVSS
VL: DVVMTQSPLSLPVTLGQPASISCRSSQSIVHSNGNTYLEWYLQKPGQSPQLLIYKVSNRFSGVPDRFSGSGSGTDFTLKISRVEAEDVGVYYCFQGSHVPLTFGQGTKLEIKR
B7: Sintilimab (antibody, V domains shown)
VH: QVQLVQSGAEVKKPGSSVKVSCKASGGTFSSYAISWVRQAPGQGLEWMGLIIPMFDTAGYAQKFQGRVAITVDESTSTAYMELSSLRSEDTAVYYCARAEHSSTGTFDYWGQGTLVTVSS
VL: DIQMTQSPSSVSASVGDRVTITCRASQGISSWLAWYQQKPGKAPKLLISAASSLQSGVPSRFSGSGSGTDFTLTISSLQPEDFATYYCQQANHLPFTFGGGTKVEIK
B8: Seq No.5-RFc (PD-1 variant SEQ ID NO: 5 fused to rabbit IgG Fc) (Fc fusion)
chain: B2 chain with F64E, L65D, N67R, L68N, P69C, G70T
notes: Signal peptide 1-20 left out; also called variant 4; not shown: rabbit IgG Fc (RFc) of vector pcDNA3.4-RFc
B9: Seq No.6-RFc (PD-1 variant SEQ ID NO: 6 fused to rabbit IgG Fc) (Fc fusion)
chain: B2 chain with F64E, L65D, N67F, L68T, P69V, G70S
notes: Signal peptide 1-20 left out; also called variant 5; 56#-16; not shown: rabbit IgG Fc (RFc) of vector pcDNA3.4-RFc

Legend:
[1] = molecular target: T1, Seq No.1-RFc (wild-type PD-1 fused to rabbit IgG Fc) (human; rabbit, UniProt Q15116 21-155); assay: SPR, Biacore T200; PD1-RFc mobile phase, antibody stationary phase
T1 construct: also called PD1-RFc; not shown: rabbit IgG Fc (RFc) of vector pcDNA3.4-RFc

[2] = molecular target: T2, Tilelizumab; assay: as above
T2 construct: Biotin-labelled in flow cytometry; also called Tevimbra; Tislelizumab

[3] = molecular target: B6; assay: SPR, Biacore T200

Row | Kd [1] [nM] | koff [1] [s⁻¹] | kon [1] [M⁻¹ s⁻¹] | Kd [2] [nM] | koff [2] [s⁻¹] | kon [2] [M⁻¹ s⁻¹] | Kd [3] [nM] | Binder
1 | 0.229 | 0.000389 | 1.7e+06 | – | – | – | – | B1
2 | – | – | – | 1.78 | 0.00105 | 588000 | – | B2
3 | – | – | – | 2.94 | 0.00203 | 691000 | – | B3
4 | – | – | – | 0.085 | 0.000174 | 2.05e+06 | 0.395 | B4
5 | – | – | – | 0.0492 | 0.000109 | 2.21e+06 | – | B5
6 | 0.178 | 0.00115 | 6.47e+06 | – | – | – | – | B6
7 | 0.00141 | 5.11e-06 | 3.62e+06 | – | – | – | – | B7
8 | – | – | – | 0.567 | 0.0003 | 530000 | – | B8
9 | – | – | – | 0.315 | 0.000836 | 2.66e+06 | – | B9
